From patent US20190177716A1

Key:
[1] = molecular target: CD3ε of the TCR-CD3 complex expressed on Jurkat cells (T-cell Surface Glycoprotein CD3 Epsilon) (human) (UniProt P07766); test: flow cytometry on Jurkat.E6 cells at 25 C, secondary goat anti-mouse IgG staining, one-site specific binding fit
[2] = molecular target: CD28 expressed on Jurkat.E6 cells (human) (UniProt P10747); test: as above

Kd [1] [nM]	Kd [2] [nM]	Substance
1.5		anti-CD3 monoclonal antibody clone OKT3 (mouse anti-human, isotype IgG2a, BioXCell Catalog# BE0001-2)
1.4		anti-CD3 monoclonal antibody clone UCHT1 (mouse anti-human, isotype IgG1, BioXCell Catalog# BE0231)
	1.6	anti-CD28 monoclonal antibody (mouse anti-human, isotype IgG2a, Clone 9.3, BioXCell Catalog# BE0248)
